Laboratory results as given in article PMC12627605 (Nature Communications, 2025).

Columns and labels:
[1] = molecular target: T1, GST-PP2C30 (rice, UniProt Q84JI0 1-404); assay: pull-down
T1 sequence: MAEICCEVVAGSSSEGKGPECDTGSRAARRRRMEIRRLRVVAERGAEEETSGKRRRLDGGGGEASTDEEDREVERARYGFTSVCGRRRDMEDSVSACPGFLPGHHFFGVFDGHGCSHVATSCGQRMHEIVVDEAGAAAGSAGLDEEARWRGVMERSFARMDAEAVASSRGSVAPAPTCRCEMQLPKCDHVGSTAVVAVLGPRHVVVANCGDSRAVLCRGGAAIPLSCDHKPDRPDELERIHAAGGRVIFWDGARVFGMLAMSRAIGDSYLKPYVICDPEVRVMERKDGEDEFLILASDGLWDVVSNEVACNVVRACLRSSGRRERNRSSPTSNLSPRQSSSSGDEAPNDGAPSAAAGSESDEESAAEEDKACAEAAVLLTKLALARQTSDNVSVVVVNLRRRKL

[2] = molecular target: T2, GST-PP2C51 (rice, UniProt Q65XK7 1-381); assay: pull-down
T2 sequence: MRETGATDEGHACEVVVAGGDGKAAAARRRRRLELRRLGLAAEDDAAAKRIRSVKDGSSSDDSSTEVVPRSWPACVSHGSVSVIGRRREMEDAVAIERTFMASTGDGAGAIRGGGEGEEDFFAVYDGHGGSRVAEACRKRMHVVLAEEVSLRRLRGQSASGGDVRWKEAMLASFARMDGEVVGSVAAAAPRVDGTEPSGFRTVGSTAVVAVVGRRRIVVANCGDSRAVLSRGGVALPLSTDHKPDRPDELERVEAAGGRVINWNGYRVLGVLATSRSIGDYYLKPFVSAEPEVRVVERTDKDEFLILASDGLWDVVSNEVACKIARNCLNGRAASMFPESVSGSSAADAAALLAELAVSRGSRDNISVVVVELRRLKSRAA

B1: SAPK2-His (natural protein)
chain: MERYEVIKDIGSGNFGVAKLVRDVRTKELFAVKFIERGQKIDENVQREIMNHRSLRHPNIVRFKEVVLTPTHLAIVMEYAAGGELFERICSAGRFSEDEARFFFQQLISGVSYCHSMQICHRDLKLENTLLDGSIAPRLKICDFGYSKSSLLHSQPKSTVGTPAYIAPEVLARKEYDGKVADVWSCGVTLYVMLVGAYPFEDPDEPRNFRKTITRILSVQYMVPDYVRVSMECRHLLSRIFVANPEQRITIPEIKNHPWFLKNLPIEMTDEYQMSVQMNDINTPSQGLEEIMAIIQEARKPGDGSKFSGQIPGLGSMELDDVDTDDIDVEDSGDFVCAL
[1]
  binding result: binds
[2]
  binding result: binds
